Results as given in paper PMC5584224, “Peptide-based PET imaging of the tumor restricted IL13RA2 biomarker” (Oncotarget, 2017).
“And” between values parts separate entries of the source, which are not always exact repeats. Equal entries are not always repeated. Non-standard residues stand in square brackets, D forms with d. Residues, ends and D or L forms follow the SMILES beside them. *: point of attachment. Biotin = O=C1N[C@H]2[C@H](CS[C@H]2CCCCC(=O)*)N1; Ahx = NCCCCCC(=O)O

Key:
[1] = cited from earlier work
Excerpt: Pep-1L was conjugated with NOTA, a chelator that can form a six-coordinate complex with Cu-64 that results in a high stability constant (log K=21.6) by CPC scientific Inc.. […] The Cu-64 radiolabeling conditions for Pep-1L were well optimized in this work for high radiochemical purity of >98%, without any need for additional purification methodologies with a specific activity of 32-35 MBq/μg (Figure 1).

in vitro = settings: human, human serum
Protocol: The in vitro serum stability of the radiotracer [^64Cu]Pep-1L in human serum was performed at different time points and was analyzed through radioTLC spotting (Figure 2).
Figure 2 In vitro serum stability of [^64Cu]Pep-1L Reverse-phase C18 radio-TLC analysis of [^64Cu]Pep-1L over a 24 hour period post production.
The in vitro serum stability of [^64Cu]Pep-1L was performed using human serum (Sigma Aldrich) following previously published methods [38, 48]. Approximately 0.037 MBq/10 μL of [^64Cu]Pep-1L was added to the serum vial, to a final volume of 100 μL and incubated at 37°C [35]. 1 μL of the sample mixture was removed and spotted on a reverse C18-TLC plate at 1 h, 2 h, 4 h, 18 h and 24 h after the radiotracer synthesis and the percentage of bound Cu-64 was determined through radioTLC analysis as mentioned above [48].

[2] = test system: B16F10-Tet-hIL13RA2 tumors; experiment: microPET/CT imaging, ROI analysis, in doxycycline-inducible B16F10-Tet-hIL13RA2 tumor model; format: in vivo, mice
Protocol: (§1) 7 days after tumor cell implantations, mice were divided into induced and uninduced (control) groups (n=4/group). To induce hIL13RA2 expression, doxycycline was administered intraperitoneally (2.5 mg/mouse) every 12 hours for 2 days. After IL13RA2-induction, [^64Cu]Pep-1L was intravenously injected to mice bearing induced or control (uninduced) subcutaneous tumors and microPET/CT imaging was performed 4 h post intravenous injection. […] Other notable findings were that there was radiotracer accumulation in liver and kidney in both induced and control animals, which are primary organs for peptide clearance. […]
(§2) B16F10 murine melanoma cell line was cultured in DMEM base media. […] Cell number was calculated using a hemocytometer and required number of B16F10 cells was suspended in DMEM media. […]
(§3) Mice bearing subcutaneous tumors were grouped into two groups (n=4) and placed in an induction chamber containing ~2% isoflurane/oxygen then secured to a custom double bed for placement of tail vein catheters. […] Samples of tumor, blood, lung, liver, spleen, kidney, muscle and heart were harvested, weighed and then counted on the gamma counter with a standard dilution of the injectate. The percentage of the injected dose per gram of tissue (%ID/g) was calculated as described above with p values ≤ .05 considered statistically significant (n=4).

in vivo = experiment: in vivo; parameters: species or system mice; settings: athymic nude, mouse, iv, total radioactivity, tumor uptake
Protocol: as §1, §2, §3

[3] = test system: IL13RA2-expressing G48 cells; experiment: In vitro cell uptake assay with and without unlabeled Pep-1L blockade; format: cell-based, human
Protocol: Previously, we reported that this cell line contains about 4,000,000 IL13RA2 binding sites.
Figure 3 Cell uptake of [^64Cu]Pep-1L Uptake of [^64Cu]Pep-1L in IL13RA2-expressing G48 cells after 1, 3, and 4 h of exposure. […] The data were expressed as % injected dose (ID)/mg of protein present in each well with p values ≤ .005 considered statistically significant (n=6).
The in vitro reactivity, binding affinity and specificity for [^64Cu]Pep-1L were determined using human GBM cell line G48, following previously reported methods. 1 × 10^5 cells were then seeded into each well of a 6-well culture. G48 cells were incubated overnight at 37°C with 5% CO2 in an incubator. […] The radioactivity was counted using the Wallac 1480 Wizard gamma counter (Perkin Elmer, Turku, Finland). […]
The uptake data in each sample from each well and the standard counts for each condition were expressed as counts per minute (cpm) of activity and were decay corrected for elapsed time. The cpm values of each well were normalized to the amount of radioactivity added to each well and the protein concentration in the well and expressed as percent uptake relative to the control condition. The data were expressed as %ID/mg of protein present in each well with p values ≤ 0.005 considered statistically significant.

[4] = test system: IL13RA2-expressing G48 tumors; experiment: Biodistribution in mice bearing IL13RA2-expressing G48 xenografts; format: in vivo; settings: G48 tumor bearing mice, 24 h post injection, non-blockade vs blockade group
Protocol: (§4) Biodistribution studies with [^64Cu]Pep-1L were performed in mice bearing IL13RA2-expressing G48 tumors (n=4) to confirm in vivo binding. […] The uptake ratios for target to non-target (tumor: muscle) increased from 3.7 to 6.0 from 4 h to 24 h (Figure 4B).
(§5) Figure 4 In vivo properties of [^64Cu]Pep-1L (A) biodistribution and (B) tumor-to-muscle (target: nontarget) ratio of [^64Cu]Pep-1L in mice bearing IL13RA2-expressing tumor xenografts 4h and 24h post injection (n=4) with p values ≤ .05 considered statistically significant.
(§6) Athymic nude mice (Taconic Farms) were housed in a pathogen-free facility of the Animal Research Program at Wake Forest School of Medicine under a 12:12-h light/dark cycle and fed ad libitum. All animal experiments were conducted under IACUC approved protocols in compliance with the guidelines for the care and use of research animals established by Wake Forest Medical School Animal Studies Committee. IL13RA2-expressing G48 tumors cells (1 × 10^5 cells suspended in 10 μL) were implanted in the left flank of nude mice (25-30 g) as described previously. The presence of viable tumors was confirmed through bioluminescence imaging. Standard biodistribution studies were performed in the same nude mice with flank tumors (n=4) at 10-15 days after tumor implantation. Mice were anesthetized with 1% isoflurane-oxygen and approximately 3.7- 4.6 MBq of [^64Cu]Pep-1L was administered via tail vein injection. […] Peptide concentration of 15 mg/kg was used as the blocking agent and was intravenously injected via tail vein 15 min prior to the radiotracer. The tumor and organs of interest were dissected and gamma counted using Wallac 1480 Wizard gamma counter (Perkin Elmer, Turku, Finland). The concentration of the radioactivity in the tumor and organs were expressed in percentage injected dose per gram (%ID/g) of radioactivity with p values ≤ .05 considered statistically significant and uptake ratio of tumor-to-muscle was calculated.

[5] = as above; format: in vivo; settings: athymic nude, mouse, in vivo, iv, total radioactivity
Protocol: as §4, §5, §6

## O=C(O)CN1CCN(CC(=O)O)CCN(CC(=O)O)CC1 [NOTA, 1,4,7-triazacyclononane-1,4,7-triacetic acid]
[1]
  stability constant (log K) of six-coordinate complex with Cu-64: 21.6

## CSCC[C@H](NC(=O)[C@H](CCC(=O)O)NC(=O)CNC(=O)[C@H](CS)NC(=O)[C@H](C)N)C(=O)NCC(=O)N[C@@H](Cc1c[nH]c2ccccc12)C(=O)N[C@H](C(=O)N[C@@H](CCCNC(=N)N)C(=O)N[C@@H](CS)C(=O)NCC(=O)NCC(=O)NCC(=O)N[C@@H](CO)C(=O)NCCCCCC(=O)N[C@@H](CCCCN)C(=O)N[C@@H](CCCCNC(=O)CCCC[C@@H]1SC[C@@H]2NC(=O)N[C@@H]21)C(N)=O)C(C)C [[^64Cu]Pep-1L, metal not drawn] (H-ACGEMGWVRCGGGS[Ahx]KK(Biotin)-NH2)
In vitro
  remaining at 24 h, 0.37 MBq/mL: ~90%
[2]; athymic nude mice, 4.62-5.5 MBq i.v., 20 min scan 4 h post injection, doxycycline 2.5 mg/mouse i.p. every 12 h for 2 days, n=4/group
  tumor accumulation, doxycycline-induced vs non-induced (ROI analysis of microPET/CT): ~ 3 fold
[2]; summary of PET/CT and post-necropsy biodistribution, doxycycline pretreatment
  binding of induced vs uninduced tumors (PET/CT and post-necropsy biodistribution, abstract): 3-4 fold
In vivo; doxycycline-induced tumors
  tissue uptake at 4 h: 14.1 ± 0.246 %ID/g
In vivo; non-induced tumors
  tissue uptake at 4 h: 4.179 ± 0.007 %ID/g
[3]; 0.0185 MBq/well, 37°C, 1, 3, 4 h, blocker 5 μM (50x excess) unlabeled peptide 15 min before tracer, gamma counting, %ID/mg protein
  cell uptake in G48 cells under binding site blockade with unlabeled Pep-1L: significantly inhibited
[3]; 37°C, 1 to 4 h exposure
  course of cell uptake over time: continued increase
[4]
  blockade of tumor uptake by pre-injected unlabeled peptide: 5 fold and 3 fold
[5]
  tissue to tissue ratio at 4 h: 3.7
  tissue to tissue ratio at 24 h: 6
[5]; blood uptake, 24 h non-blockade
  tissue uptake at 24 h: 0.62 ± 0.579 %ID/g
[5]; brain uptake, 4 h
  tissue uptake at 4 h: ~0.013 %ID/g
[5]; brain uptake, 24 h
  tissue uptake at 24 h: ~0.009 %ID/g
[5]; heart uptake, 24 h non-blockade
  tissue uptake at 24 h: 1.21 ± 1.01 %ID/g
[5]; kidney uptake, 24 h non-blockade
  tissue uptake at 24 h: 17.4 ± 1.41 %ID/g
[5]; liver uptake, 24 h non-blockade
  tissue uptake at 24 h: 9.86 ± 1.59 %ID/g
[5]; lung uptake, 24 h non-blockade
  tissue uptake at 24 h: 3.58 ± 1.08 %ID/g
[5]; muscle uptake, 24 h non-blockade
  tissue uptake at 24 h: 0.41 ± 0.038 %ID/g
[5]; tumor uptake, 24 h non-blockade
  tissue uptake at 24 h: 2.43 ± 0.626 %ID/g
[5]; nude mice with G48 flank tumors, 3.7-4.6 MBq i.v. tail vein, 4 h post injection, gamma counting, mean ± SD, n=4, read-out: tumor uptake, 4 h
  tissue uptake at 4 h: 1.38 ± 0.09 %ID/g
